The test has as its target HA-tagged WT WD40 (FBW7ΔDF) (human) (UniProt Q969H0).

“Merkel cell polyomavirus small T antigen, wild type (natural protein)” came in with an LT protein turnover (t1/2) in a cycloheximide chase, 293 cells co-transfected with LT and sT; FBW7 is that of the cells, not the ΔDF construct of more than 10 h.
